Experimental data taken from the supplement of paper PMC10567573.

Assay: protein stability index of a GFP-peptide fusion (GPS, HEK-293T) (PSI 1-6); higher = more stable
Conditions: c terminus: native
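Note: lentivirally expressed fusion library, cells FACS-sorted into six equal-sized GFP/DsRed ratio bins, PSI computed from sequencing read fractions per bin weighted by bin number.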

LPALFTDLYSQEITAEEAREALPY [SNF8 addY]
protein stability index (parent: NP_009172.2): 4.33

DGWIRVSSDNVADLHEKYSGSTPY [PSMB5 addY]
protein stability index (parent: NP_002788.1): 3.43

CQPISFSGFGAEDDDLGGLGLGPY [POLD2 addY]
protein stability index (parent: NP_006221.1): 2.32

EQRNSRWNTVLRAVKAKTHHLEPY [TRPA1 addY]
protein stability index (parent: NP_015628.1): 4.2

HSLRAVSTDPPHHDHHDEFCLMPY [BEX2 addY]
protein stability index (parent: NP_116010.1): 3.52
